US20230416371A1 (Chugai, published 2023)
Residue numbers refer to the chain shown, from its start. Names and notes keep the numbering of the source. One block for each binder: values may come before it.

How the values were obtained:
[1] = biological target: hFcγRIIIaV on hFcγRIIIaV-expressing Jurkat cells (human, UniProt P08637 17-254); assay: cell-based or functional assay
[2] = biological target: T1, human FcγRIIa H (allotype H131) extracellular domain (human, UniProt P12318 34-217); assay: SPR Biacore 8K+; KD of G1d divided by KD of this antibody
T1 construct: extracellular domain; also called hFcγRIIaH
T1 sequence (looked up): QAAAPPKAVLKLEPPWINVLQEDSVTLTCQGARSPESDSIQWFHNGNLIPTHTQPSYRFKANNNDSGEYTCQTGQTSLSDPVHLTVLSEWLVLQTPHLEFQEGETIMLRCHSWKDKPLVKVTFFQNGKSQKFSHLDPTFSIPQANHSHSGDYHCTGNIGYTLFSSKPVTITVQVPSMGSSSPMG
Protocol: (§1) The extracellular domains of FcγRs were produced by the method described in WO2014104165. The interaction between the produced antibodies and human FcγRs was analyzed using Biacore 8K+by the method below. For the running buffer, 50 mM Na-Phosphate, 150 mM NaCl, and 0.05% Tween20 (pH 7.4) was used, and measurement was performed at 25° C. The sensor chip used was a Series S SA chip (GE Healthcare) onto which CaptureSelect Human Fab-kappa Kinetics Biotin Conjugate (Thermo Fisher Scientific) was immobilized. An antibody of interest was captured onto this chip, and each FcγR diluted with the running buffer was allowed to interact with it. The chip was regenerated using 10 mM Glycine-HCl (pH 1.5), and repeatedly used to capture antibodies and perform measurement. The dissociation constants KD (mol/L) of each antibody for FcγRs were calculated using Biacore Insight Evaluation Software, with a steady state affinity model for the dissociation constant for FcγRIIb and a 1:1 Langmuir binding model for the dissociation constants for the other FcγRs (Table 2).

[3] = biological target: T2, human FcγRIIb extracellular domain (human, UniProt P31994 43-217); assay: as above
T2 construct: extracellular domain; also called hFcγRIIb
T2 sequence (looked up): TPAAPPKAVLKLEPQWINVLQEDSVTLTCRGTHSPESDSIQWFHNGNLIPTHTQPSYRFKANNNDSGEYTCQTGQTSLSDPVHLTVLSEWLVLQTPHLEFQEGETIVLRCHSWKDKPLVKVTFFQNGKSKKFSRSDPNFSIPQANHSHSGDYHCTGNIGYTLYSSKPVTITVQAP
Protocol: as §1

[4] = biological target: T3, human FcγRIIIa V (allotype V158) extracellular domain (human, UniProt P08637 17-208); assay: SPR Biacore 8K+, 25 C, antibody captured, FcγR as analyte, 1:1 Langmuir model
T3 construct: extracellular domain; also called hFcγRIIIaV
Protocol: as §1

[5] = biological target: T2, human FcγRIIb extracellular domain; assay: SPR Biacore 8K+, 25 C, antibody captured, FcγR as analyte, steady state affinity model
Protocol: as §1

[6] = biological target: T1, human FcγRIIa H (allotype H131) …; assay: SPR Biacore 8K+; KD for FcγRIIb divided by KD for this FcγR
Protocol: as §1

[7] = biological target: T3, human FcγRIIIa V (allotype V158) …; assay: SPR Biacore 8K+; KD of G1d divided by KD of this antibody
Protocol: as §1

[8] = biological target: T4, human FcγRIIIa F (allotype F158) extracellular domain (human, UniProt P08637 17-208); assay: SPR Biacore 8K+, 25 C, antibody captured, FcγR as analyte, 1:1 Langmuir model
T4 construct: extracellular domain; also called hFcγRIIIaF
Protocol: as §1

[9] = biological target: T1, human FcγRIIa H (allotype H131) …; assay: as above
Protocol: as §1

[10] = biological target: T4, human FcγRIIIa F (allotype F158) …; assay: SPR Biacore 8K+; KD of G1d divided by KD of this antibody
Protocol: as §1

[11] = biological target: T4, human FcγRIIIa F (allotype F158) …; assay: SPR Biacore 8K+; KD for FcγRIIb divided by KD for this FcγR
Protocol: as §1

[12] = biological target: T3, human FcγRIIIa V (allotype V158) …; assay: as above
Protocol: as §1

T4 sequence (P08637 17-208): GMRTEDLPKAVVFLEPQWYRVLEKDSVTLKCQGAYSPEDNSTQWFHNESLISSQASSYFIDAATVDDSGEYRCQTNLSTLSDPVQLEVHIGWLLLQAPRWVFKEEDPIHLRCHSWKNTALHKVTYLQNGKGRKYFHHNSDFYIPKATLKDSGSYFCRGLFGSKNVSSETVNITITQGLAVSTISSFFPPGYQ
T3 sequence (P08637 17-208 F176V): as the sequence (P08637 17-208) above, with F160V counted along it
hFcγRIIIaV on hFcγRIIIaV-expressing Jurkat cells, sequence (P08637 17-254, form in doubt): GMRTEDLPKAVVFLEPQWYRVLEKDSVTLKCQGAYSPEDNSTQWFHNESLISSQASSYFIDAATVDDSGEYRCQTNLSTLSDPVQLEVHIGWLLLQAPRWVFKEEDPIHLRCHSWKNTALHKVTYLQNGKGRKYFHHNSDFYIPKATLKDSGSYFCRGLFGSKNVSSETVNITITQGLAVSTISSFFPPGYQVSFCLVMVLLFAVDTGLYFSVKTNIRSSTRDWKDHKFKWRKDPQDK

B2: EGL-G1d (H240-G1d/L73-k0) (antibody, human IgG1, kappa)
heavy: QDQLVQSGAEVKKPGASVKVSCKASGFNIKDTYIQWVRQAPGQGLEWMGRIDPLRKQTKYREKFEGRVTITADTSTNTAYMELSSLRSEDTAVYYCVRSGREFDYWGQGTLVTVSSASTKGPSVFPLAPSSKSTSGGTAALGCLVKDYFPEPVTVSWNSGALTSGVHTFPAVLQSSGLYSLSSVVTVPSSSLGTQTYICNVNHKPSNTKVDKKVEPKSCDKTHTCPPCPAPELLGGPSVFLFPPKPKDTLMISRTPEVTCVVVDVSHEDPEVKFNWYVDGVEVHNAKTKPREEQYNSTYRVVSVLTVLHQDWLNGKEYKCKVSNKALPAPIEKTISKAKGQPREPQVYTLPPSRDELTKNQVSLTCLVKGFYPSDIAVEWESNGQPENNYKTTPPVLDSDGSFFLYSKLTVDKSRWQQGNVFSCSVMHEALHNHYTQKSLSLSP
light: DIQMTQSPSSLSASVGDRVTITCRASQDIHKYIAWYQQKPGQAPRLLIQYTSTLQPGVPSRFSGSGSGTDYTFTISSLQPEDIATYYCLQYEQLRTFGGGTKVEIKRTVAAPSVFIFPPSDEQLKSGTASVVCLLNNFYPREAKVQWKVDNALQSGNSQESVTEQDSKDSTYSLSSTLTLSKADYEKHKVYACEVTHQGLSSPVTKSFNRGEC
notes: Anti-human Epiregulin antibody with human IgG1 constant region G1d (C-terminal Lys and Gly deleted); parent of all Fc variants; also called H240-Gld/L73-k0; anti-hEREG control antibody
- A/I ratio (KD for FcγRIIb divided by KD for each FcγR) [6]: 6.9

B3: EGL-SDALIE (H240-Kn032/L73-k0//H240-H1032/L73-k0) (antibody, human IgG1, kappa)
heavy 1: QDQLVQSGAEVKKPGASVKVSCKASGFNIKDTYIQWVRQAPGQGLEWMGRIDPLRKQTKYREKFEGRVTITADTSTNTAYMELSSLRSEDTAVYYCVRSGREFDYWGQGTLVTVSSASTKGPSVFPLAPSSKSTSGGTAALGCLVKDYFPEPVTVSWNSGALTSGVHTFPAVLQSSGLYSLSSVVTVPSSSLGTQTYICNVNHKPSNTKVDKKVEPKSCDKTHTCPPCPAPELLGGPDVFLFPPKPKDTLMISRTPEVTCVVVDVSHEDPEVKFNWYVDGVEVHNAKTKPREEQYNSTYRVVSVLTVLHQDWLNGKEYKCKVSNKALPLPEEKTISKAKGQPREPQVCTLPPSRDELTKNQVSLWCLVKGFYPSDIAVEWESNGQPENNYKTTPPVLDSDGSFFLYSKLTVDKSRWQQGNVFSCSVMHEALHNHYTQKSLSLSP
heavy 2: B3 heavy 1 with C348Y, D355C, W365S, L367A, Y406V
light: B2 light
notes: Anti-human Epiregulin IgG1 with S239D/A330L/I332E in both CH2 domains and knobs-into-holes in CH3
- Relative value to KD between G1d and hFcγRs [7]: 36.6 times
- Kd [8]: 26.5 nM

B4: EGL-GASDALIE (H240-GASDALIE/L73-k0) (antibody, human IgG1, kappa)
heavy: B3 heavy 1 with G235A, C348Y, W365T
light: B2 light
notes: Anti-human Epiregulin IgG1 with symmetric G236A/S239D/A330L/I332E
- Kd [9]: 152 nM

B6: EGL-GASDIE (H240-Kn037/L73-k0//H240-H1036/L73-k0) (antibody, human IgG1, kappa)
heavy 1: B3 heavy 1 with G235A, L329A
heavy 2: B3 heavy 1 with G235A, L329A, C348Y, D355C, W365S, L367A, Y406V
light: B2 light
notes: Anti-human Epiregulin IgG1 with G236A/S239D/I332E in both CH2 domains and knobs-into-holes in CH3
- Kd [5]: 12.5 nM

Other lines, results leading:

- EC50 value of hFcγRIIIaV-mediated reporter gene induction activity [1]: 5.16 ng/mL
- Relative value to KD between G1d and hFcγRs [2]: 1.1 times
- Relative value to KD between G1d and hFcγRs [3]: 1.8 times
- Kd [4]: 18 nM
- Kd [5]: 5850 nM
B1: EGL-afucosyl (H240-G1d/L73-k_glycomab) (antibody)
heavy: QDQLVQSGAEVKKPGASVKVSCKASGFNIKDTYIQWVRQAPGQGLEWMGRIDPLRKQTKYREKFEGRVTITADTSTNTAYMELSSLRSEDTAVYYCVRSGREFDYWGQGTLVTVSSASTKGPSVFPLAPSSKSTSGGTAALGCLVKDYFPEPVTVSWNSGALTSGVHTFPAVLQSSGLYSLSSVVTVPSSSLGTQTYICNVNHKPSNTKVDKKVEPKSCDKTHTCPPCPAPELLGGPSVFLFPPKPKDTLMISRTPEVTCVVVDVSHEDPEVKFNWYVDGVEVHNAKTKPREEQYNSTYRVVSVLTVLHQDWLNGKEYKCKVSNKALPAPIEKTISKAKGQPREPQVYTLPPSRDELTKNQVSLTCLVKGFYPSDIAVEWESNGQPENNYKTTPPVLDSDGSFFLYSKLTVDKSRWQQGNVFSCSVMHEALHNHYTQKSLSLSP
VL: DIQMTQSPSSLSASVGDRVTITCRASQDIHKYIAWYQQKPGQAPRLLIQYTSTLQPGVPSRFSGSGSGTDYTFTISSLQPEDIATYYCLQYEQLRTFGGGTKVEIK
modifications: afucosylated (fucose-deficient sugar chain) ; Afucosylated (fucose-deficient) N-glycan at Asn297 (EU) of the heavy chain; the letters cannot carry it.
notes: Same heavy chain as EGL-G1d, produced in cells that give fucose-deficient antibodies; also called afucosylated antibody

- Relative value to KD between G1d and hFcγRs [10]: 1270 times
B5: EGL-ART10 (H240-Kn494/L73-k0//H240-HI514/L73-k0) (antibody, human IgG1, kappa)
heavy 1: B3 heavy 1 with L233F, L234Q, G235W, D238M, T249V, H267D, D269E, S297A, T306P, L329A
heavy 2: QDQLVQSGAEVKKPGASVKVSCKASGFNIKDTYIQWVRQAPGQGLEWMGRIDPLRKQTKYREKFEGRVTITADTSTNTAYMELSSLRSEDTAVYYCVRSGREFDYWGQGTLVTVSSASTKGPSVFPLAPSSKSTSGGTAALGCLVKDYFPEPVTVSWNSGALTSGVHTFPAVLQSSGLYSLSSVVTVPSSSLGTQTYICNVNHKPSNTKVDKKVEPKSCDKTHTCPPCPAPELLGGPSVFLFPPKPKDVLMISRTPEVTCVVVDVSHEEPEVKFNWYVDGVEVHNAKTKPREEQYNATYRVVSVLPVLHQDWLNGKEYKCKVSNDALPAPEEETISKAKGQPREPQVYTLPPSRCELTKNQVSLSCAVKGFYPSDIAVEWESNGQPENNYKTTPPVLDSDGSFFLVSKLTVDKSRWQQGNVFSCSVMHEALHNHYTQKSLSLSP
light: B2 light
notes: Anti-human Epiregulin IgG1 with heterodimeric (knobs-into-holes) Fc variant

- A/I ratio (KD for FcγRIIb divided by KD for each FcγR) [11]: 975
- A/I ratio (KD for FcγRIIb divided by KD for each FcγR) [12]: 2030
B7: EGL-ART6 (H240-Kn462/L73-k0//H240-HI445/L73-k0) (antibody, human IgG1, kappa)
heavy 1: QDQLVQSGAEVKKPGASVKVSCKASGFNIKDTYIQWVRQAPGQGLEWMGRIDPLRKQTKYREKFEGRVTITADTSTNTAYMELSSLRSEDTAVYYCVRSGREFDYWGQGTLVTVSSASTKGPSVFPLAPSSKSTSGGTAALGCLVKDYFPEPVTVSWNSGALTSGVHTFPAVLQSSGLYSLSSVVTVPSSSLGTQTYICNVNHKPSNTKVDKKVEPKSCDKTHTCPPCPAPEFQWGPMVFLFPPKPKDVLMISRTPEVTCVVVDVSDEEPEVKFNWYVDGVEVHNAKTKPREEQYNATYRVVSVLPVLHQDWLNGKEYKCKVSNDALPAPIEKTISKAKGQPREPQVCTLPPSRDELTKNQVSLWCLVKGFYPSDIAVEWESNGQPENNYKTTPPVLDSDGSFFLYSKLTVDKSRWQQGNVFSCSVMHEALHNHYTQKSLSLSP
heavy 2: B5 heavy 2 with G235A, A329K, E331D
light: B2 light
notes: as for B5
